Laboratory results published in PMC6366860 (Journal of molecular and cellular cardiology, 2018).

Biological target: F-actin from rabbit skeletal muscle (rabbit, UniProt P68135 1-377)
Test: co-sedimentation

B1: mouse short form C0-C2, C-terminal tagged (mSF1), lacking the 8 amino acid NTE (domain or fragment)
chain: PEPGKKPVSAFNKKPRSAEVTAGSAAVFEAETERSGVMVRWQRDGSDITANDKYGLAAEGKRHTLTVRDASPDDQGSYAVIAGSSKVKFDLKVTEPAPPEKAESEVAPGAPEEVPAPATELEESVSSPEGSVSVTQDGSAAEHQGAPDDPIGLFLMRPQDGEVTVGGSIVFSARVAGASLLKPPVVKWFKGKWVDLSSKVGQHLQLHDSYDRASKVYLFELHITDAQTTSAGGYRCEVSTKDKFDSCNFNLTVHEAIGSGDLDLRSAFRRTSLAGAGRRTSDSHEDAGTPDFSSLLKKRDSFRRDSKLEAPAEEDVWEILRQAPPSEYERIAFQHGVEACHRPLKRLKGMKQDEKKSTAFQKKLEPAYQVNKGHKIRLTVELADPDAEVKWLKNGQEIQMSGSKYIFESVGAKRTLTISQCSLADDAAYQCVVGGEKCSTELFVKEP
B1 was tested, and the Kd was 10.7 µM.
